# From IntAct's records for PubMed 23969831
# B1: Protrudin (Homo sapiens), Q5T4F4 (parent)
# chain: MQTSEREGSGPELSPSVMPEAPLESPPFPTKSPAFDLFNLVLSYKRLEIYLEPLKDAGDGVRYLLRWQMPLCSLLTCLGLNVLFLTLNEGAWYSVGALMISVPALLGYLQEVCRARLPDSELMRRKYHSVRQEDLQRGRLSRPEAVAEVKSFLIQLEAFLSRLCCTCEAAYRVLHWENPVVSSQFYGALLGTVCMLYLLPLCWVLTLLNSTLFLGNVEFFRVVSEYRASLQQRMNPKQEEHAFESPPPPDVGGKDGLMDSTPALTPTEDLTPGSVEEAEEAEPDEEFKDAIEETHLVVLEDDEGAPCPAEDELALQDNGFLSKNEVLRSKVSRLTERLRKRYPTNNFGNCTGCSATFSVLKKRRSCSNCGNSFCSRCCSFKVPKSSMGATAPEAQRETVFVCASCNQTLSK
# B2: Atlastin-1 (Homo sapiens), Q8WXF7 (parent)
# chain: MAKNRRDRNSWGGFSEKTYEWSSEEEEPVKKAGPVQVLIVKDDHSFELDETALNRILLSEAVRDKEVVAVSVAGAFRKGKSFLMDFMLRYMYNQESVDWVGDYNEPLTGFSWRGGSERETTGIQIWSEIFLINKPDGKKVAVLLMDTQGTFDSQSTLRDSATVFALSTMISSIQVYNLSQNVQEDDLQHLQLFTEYGRLAMEETFLKPFQSLIFLVRDWSFPYEFSYGADGGAKFLEKRLKVSGNQHEELQNVRKHIHSCFTNISCFLLPHPGLKVATNPNFDGKLKEIDDEFIKNLKILIPWLLSPESLDIKEINGNKITCRGLVEYFKAYIKIYQGEELPHPKSMLQATAEANNLAAVATAKDTYNKKMEEICGGDKPFLAPNDLQTKHLQLKEESVKLFRGVKKMGGEEFSRRYLQQLESEIDELYIQYIKHNDSKNIFHAARTPATLFVVIFITYVIAGVTGFIGLDIIASLCNMIMGLTLITLCTWAYIRYSGEYRELGAVIDQVAAALWDQGSTNEALYKLYSAAATHRHLYHQAFPTPKSESTEQSEKKKM
# partner: B1 chain
# B3: Protrudin (Homo sapiens), Q5T4F4 (parent)
# chain: B1 chain
# partner: B2 chain
# Variants of: B1
# Conditions: with reep5_human REEP5, Q00765
# Sequence of reep5_human REEP5, Q00765 (Q00765 whole entry): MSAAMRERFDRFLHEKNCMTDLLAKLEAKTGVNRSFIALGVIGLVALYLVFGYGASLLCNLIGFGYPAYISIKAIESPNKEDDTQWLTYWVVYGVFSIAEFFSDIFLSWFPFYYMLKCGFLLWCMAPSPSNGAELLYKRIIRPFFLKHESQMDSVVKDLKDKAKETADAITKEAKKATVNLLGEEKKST
row,Variant,effect of a mutation on the interaction
1,G191V,with no effect
2,P200A,decreasing interaction strength

# Variants of: B2
# Conditions: with zfy27_human ZFYVE27, Q5T4F4
row,Variant,effect of a mutation on the interaction
1,K80A,with no effect
2,G469A,with no effect
3,R495W,with no effect
4,S519A,with no effect

# Variants of: B3
# Conditions: with atla1_human ATL1, Q8WXF7
row,Variant,effect of a mutation on the interaction
1,G191V,with no effect
